How the values were obtained:
[1] = target: S protein of the SARS-CoV-2 Delta strain on pseudo-virus (SARS-CoV-2 Delta strain); experiment: cell-based or functional assay
[2] = target: T1, S protein of the SARS-CoV-2 BA.1 strain on pseudo-virus (SARS-CoV-2 BA.1 strain); experiment: cell-based or functional assay
[3] = target: T2, S protein of the SARS-CoV-2 BA.2.75 strain on pseudo-virus (SARS-CoV-2 BA.2.75 strain); experiment: cell-based or functional assay
[4] = target: T3, S protein of the SARS-CoV-2 BA.4/5 strains on pseudo-virus (SARS-CoV-2 BA.4/5 strain); experiment: cell-based or functional assay
[5] = target: T4, S protein of the SARS-CoV-2 BF.7 strain on pseudo-virus (SARS-CoV-2 BF.7 strain); experiment: cell-based or functional assay
[6] = target: T5, S protein of the SARS-CoV-2 BQ.1 strain on pseudo-virus (SARS-CoV-2 BQ.1 strain); experiment: cell-based or functional assay
[7] = target: T6, S protein of the SARS-CoV-2 BQ.1.1 strain on pseudo-virus (SARS-CoV-2 BQ.1.1 strain); experiment: cell-based or functional assay
[8] = target: T7, S protein of the SARS-CoV-2 XBB strain on pseudo-virus (SARS-CoV-2 XBB strain); experiment: cell-based or functional assay
[9] = target: T8, S protein of the SARS-CoV-2 XBB.1.5 strain on pseudo-virus (SARS-CoV-2 XBB.1.5 strain); experiment: cell-based or functional assay
[10] = target: T1, S protein of the SARS-CoV-2 BA.1 strain …; experiment: cell-based or functional assay; remark: listed apart in the source
[11] = target: S protein of the SARS-CoV-2 BA.1.1 strain on pseudo-virus (SARS-CoV-2 BA.1.1 strain); experiment: cell-based or functional assay
[12] = target: S protein of the SARS-CoV-2 BA.2 strain on pseudo-virus (SARS-CoV-2 BA.2 strain); experiment: cell-based or functional assay
[13] = target: T2, S protein of the SARS-CoV-2 BA.2.75 …; experiment: cell-based or functional assay; remark: listed apart in the source
[14] = target: S protein of the SARS-CoV-2 BA.3 strain on pseudo-virus (SARS-CoV-2 BA.3 strain); experiment: cell-based or functional assay
[15] = target: T3, S protein of the SARS-CoV-2 BA.4/5 …; experiment: cell-based or functional assay; remark: listed apart in the source
[16] = target: T4, S protein of the SARS-CoV-2 BF.7 strain …; experiment: cell-based or functional assay; remark: listed apart in the source
[17] = target: T5, S protein of the SARS-CoV-2 BQ.1 strain …; experiment: cell-based or functional assay; remark: listed apart in the source
[18] = target: T6, S protein of the SARS-CoV-2 BQ.1.1 …; experiment: cell-based or functional assay; remark: listed apart in the source
[19] = target: T7, S protein of the SARS-CoV-2 XBB strain …; experiment: cell-based or functional assay; remark: listed apart in the source
[20] = target: T8, S protein of the SARS-CoV-2 XBB.1.5 …; experiment: cell-based or functional assay; remark: listed apart in the source
[21] = target: S protein of the SARS-CoV-2 XBB.1.16 strain on pseudo-virus (SARS-CoV-2 XBB.1.16 strain); experiment: cell-based or functional assay
[22] = target: T9, RBD of the S protein of the BA.1.1 strain (SARS-CoV-2 BA.1.1 strain); experiment: ELISA on plate-coated RBD (1 µg/mL), HRP anti-human Fc detection, OD450
T9 construct: domain: RBD; also called BA.1.1 RBD

[23] = target: T10, RBD of the S protein of the BA.2.12.1 strain (SARS-CoV-2 BA.2.12.1 strain); experiment: as above
T10 construct: domain: RBD; also called BA.2.12.1 RBD

[24] = target: T11, SARS-CoV-2 (BA.5) Spike RBD (SARS-CoV-2 BA.5 strain); experiment: as above
T11 construct: domain: RBD; also called BA.5 RBD

B1: monoclonal antibody L4.65 (antibody, V domains shown)
VH: QITLKESGPTLVKPTQTLTLTCTFSGFSLSTSGVGVAWIRQPPGKALEWLALIYWDNDKRSSPSLNNRLTITKDTSKNQVVLTMTNMDPEDTATYYCAHFFSHYDSSNYYYGSWFDPWGQGTLVTVSS
VL: EIVLTQSPGTLSLSPGERATLSCRASQSFDSRYLGWYQQKSGQAPRLLIYGASSRATGIPDRFSGSGSGTDFTLTISRLEPEDFAVYYCQQFGDSPFTFGQGTKLEIKR
notes: also called monoclonal antibody 65; 65IgG
Q: For B1, which “Neutralization activity (IC50) against pseudo-virus” value (“Neutralization activity (IC50)” for short) [1] is on record?
A: 0.00252 µg/mL

Q: What about the “Neutralization activity (IC50)” value [2] of the same binder?
A: 0.00135 µg/mL

Q: And the “Neutralization activity (IC50)” value [3]?
A: 0.0112 µg/mL

Q: What about the “Neutralization activity (IC50)” value [4] of the same binder?
A: 0.00138 µg/mL

Q: What about the “Neutralization activity (IC50)” value [5] of the same binder?
A: 0.00212 µg/mL

Q: And the “Neutralization activity (IC50)” value [6]?
A: > 2 µg/mL

Q: What about the “Neutralization activity (IC50)” value [7] of the same binder?
A: > 2 µg/mL

Q: What about the “Neutralization activity (IC50)” value [8] of the same binder?
A: 0.0214 µg/mL

Q: And the “Neutralization activity (IC50)” value [9]?
A: 0.0541 µg/mL

Q: And the “Neutralization Effects (IC50) against SARS-CoV-2 pseudo-viruses” value (shortened to “Neutralization Effects (IC50)”) [10]?
A: 0.000394 µg/mL

Q: What about the “Neutralization Effects (IC50)” value [11] of the same binder?
A: 0.00028 µg/mL

Q: And the “Neutralization Effects (IC50)” value [12]?
A: 0.00039 µg/mL

Q: And the “Neutralization Effects (IC50)” value [13]?
A: 0.00194 µg/mL

Q: And the “Neutralization Effects (IC50)” value [14]?
A: 0.00044 µg/mL

Q: What about the “Neutralization Effects (IC50)” value [15] of the same binder?
A: 0.000377 µg/mL

Q: And the “Neutralization Effects (IC50)” value [16]?
A: 0.000446 µg/mL

Q: And the “Neutralization Effects (IC50)” value [17]?
A: 2.09 µg/mL

Q: And the “Neutralization Effects (IC50)” value [18]?
A: 4.58 µg/mL

Q: What about the “Neutralization Effects (IC50)” value [19] of the same binder?
A: 0.00335 µg/mL

Q: What about the “Neutralization Effects (IC50)” value [20] of the same binder?
A: 0.0137 µg/mL

Q: And the “Neutralization Effects (IC50)” value [21]?
A: 0.0103 µg/mL

Q: What about the EC50 [22] of the same binder?
A: 5.92 pM

Q: And the EC50 [23]?
A: 64.1 pM

Q: What about the EC50 [24] of the same binder?
A: 105 pM

B2: monoclonal antibody CoV56 (antibody, V domains shown)
VH: EVQLVESGGGVVQPGGSLRLSCAVSGFTFDDYAMHWVRQAPGKGLDWVSLISGDGSYTYYADSVKGRFTISRDSSKNSLYLQMNSLRTEDTALYYCAKAQTPTLWWLQDAFDIWGQGTMVTVSS
VL: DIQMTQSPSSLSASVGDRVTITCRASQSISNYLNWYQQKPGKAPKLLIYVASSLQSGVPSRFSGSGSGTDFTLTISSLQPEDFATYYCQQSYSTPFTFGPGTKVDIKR
notes: also called monoclonal antibody 56; 56IgG
Q: For B2, which “Neutralization activity (IC50)” value [1] is on record?
A: > 2 µg/mL

Q: What about the “Neutralization activity (IC50)” value [2] of the same binder?
A: > 2 µg/mL

Q: And the “Neutralization activity (IC50)” value [3]?
A: > 2 µg/mL

Q: What about the “Neutralization activity (IC50)” value [4] of the same binder?
A: > 2 µg/mL

Q: And the “Neutralization activity (IC50)” value [5]?
A: > 2 µg/mL

Q: And the “Neutralization activity (IC50)” value [6]?
A: > 2 µg/mL

Q: What about the “Neutralization activity (IC50)” value [7] of the same binder?
A: > 2 µg/mL

Q: And the “Neutralization activity (IC50)” value [8]?
A: > 2 µg/mL

Q: What about the “Neutralization activity (IC50)” value [9] of the same binder?
A: > 2 µg/mL

Q: What about the “Neutralization Effects (IC50)” value [10] of the same binder?
A: 14.8 µg/mL

Q: And the “Neutralization Effects (IC50)” value [11]?
A: 10.8 µg/mL

Q: What about the “Neutralization Effects (IC50)” value [12] of the same binder?
A: 8.32 µg/mL

Q: And the “Neutralization Effects (IC50)” value [13]?
A: 58.8 µg/mL

Q: And the “Neutralization Effects (IC50)” value [14]?
A: 18.5 µg/mL

Q: What about the “Neutralization Effects (IC50)” value [15] of the same binder?
A: 7.53 µg/mL

Q: And the “Neutralization Effects (IC50)” value [16]?
A: 11.7 µg/mL

Q: What about the “Neutralization Effects (IC50)” value [17] of the same binder?
A: 19.6 µg/mL

Q: What about the “Neutralization Effects (IC50)” value [18] of the same binder?
A: 15.9 µg/mL

Q: What about the “Neutralization Effects (IC50)” value [19] of the same binder?
A: 15.9 µg/mL

Q: And the “Neutralization Effects (IC50)” value [20]?
A: 11.8 µg/mL

Q: What about the “Neutralization Effects (IC50)” value [21] of the same binder?
A: 21.7 µg/mL

Q: What about the EC50 [22] of the same binder?
A: 45.4 pM

Q: What about the EC50 [23] of the same binder?
A: 83.9 pM

Q: And the EC50 [24]?
A: 167 pM
